The data set in a line: label from the status in PepcDB records.
For “MDLTIQHFIALAPLLITSLTVVVVMLAIAWRRNHSQTFLLSVAGLNLALLSIYPALKVAPLVVTPLLHIDNFACLYMAIILASTLACVTMAHAYLGDGKVGYPGNREELYLLILLAAAGGLVLVSAQHLAGLFIGLELLSVPVYGLVAYAFFNKRSLEGGIKYMVLSAAGSAFLLFGMALLYAEAGSLSFEGIGKAIAATGMPSPIATVGLGMMVVGLAFKLSLVPFHLWTPDVYEGAPAPVAAFLATASKVAVFAVLVRLFQISPAASSGVLHDVMAVIAVASILVGNLLALTQTNLKRLLGYSSIAHFGYLMIALVASKGMAVEAIGVYLATYVLTSLGSFGVITMMSSPYSGRDADAMFEYRGLFWRRPYLTAVMTLMMLSLAGIPLTAGFIGKFYIIATGVESQLWWLIGALVIGSAIGVFYYLRVMVTMYLVDNKLPRHDAAINWAQRTGGVMLLAVAILTFVLGVYPQPLLDLVVNAGLHAAG”, the protein production entry is “not failed”.

For the sequence “MSHKCFKDESFETRISCPLCQKELIMTWQRDNIPYFGEIMYVSAKCPCSFRFADTMILSSKEPMRYELSVESPEDLDARVIRSTSGTIRIPEMGIVVEPGTVSDSYITNIEGVLQRVQNVLMTASRWVREDEEKFARSQELLCMLNEVIEGRRAITVIIEDPLGNSAIISKKAVASKLSKEEAEKLNTGMIVFDVDKSELAHDISDNVKPLGGDLEHHHHHH”, the protein production result was “not failed”.

Turning to “MSDLAMANPAPERTVMQHVRPLPYEADFTGFLSNTVAPRWMEALRIQRMRTCFPHFDSGAPQHLCIITETTVRYRKPVRYSDAIVGKAWLQSARYSRWIIAFSFAFEFSGLPAFEGRQAGTFIDPQTHLPLPIPASLRLPADH”, the protein production result is recorded as “failed”.

“MSAPADRSFAIERIFNAPVERVFRLWTDPLLVAQWWGIRDCTIPLCVLDVRVGGRWRIDMLTAGGALYRNQGSYLEVVENVRLSYRDEPDPEIREWAGKPPGRSRHTVSFTASGARTHVHFEVTLATAADRERLLALGMRGGWMQSFDRLEQLIGKGADHAG”: the protein production result was “failed”.

Regarding “MSLSDWHLAVKLADQPLAPKSILQLPETELGEYSLGGYSISFLKQLIAGKLQESVPDPELIDLIYCGRKLKDDQTLDFYGIQPGSTVHVLRKSW”, the protein production result is given as “not failed”.

Take “KYNPVVNPERALERRNWILGRMLQLGYINQTQYQQAVAEPINLDMPDRGVSNRYPYIGEMVRAELVEKFGEQAVDSGY”: the protein production result is on record as “failed”.

On to “MGEVFQKEAYAQELIDYYNQSTNDVLKRTASISENEKPRVLFLVYDQRKNSYWTPGGEFYQNNLITMAGGKTVSSDLPTGKAQINVEQAASWNPDVIITSAHTMEYPSTKVKEDVLTDEGWKEINAVKSGNVYAMPFDGESWDTLGSKYVLGLYWTAKTLEHHHHHH”, for which the protein production result is recorded as “not failed”.

In the case of “MSLIFTAIVVFLFILAIFDLIVGVSNDAVNFLNSAIGAKAAPFKIIVGVAALGVFCGAAMNNGMMEIARHGIFRPEHYTFSELMVVFLSVVITDVVLMDMFNSLGMPTSTTVSLIFELLGGSFFMAMTKVGGTVGFQDLLNTEKALSVILGIFLSVGIAFFFGMVVQYLSRLLFTFNYRRNLRWLAGLFGGVAVTSIIYFMLIKGLKGVSFMTEESTAWIAANTGRLVLYCLVVSIILMQVLYWLRVNVFKVIVLLGTFALAMAFAGNDLVNFIGVPLAGYSSYLDFNANGNGQYDTYLMGALNEPASTPVYFLVAAGIVMVYALITSKKAHNVIKTSVDLARQEEGEEMFGSSGLARSIVRFSTTTANAVSRIIPRPVGRWIDSRFNQDELIMAKGAAFDLVRASVNLVLAGLLIAFGTSLRLPLSTTYVAFMVAMGTSLADRAWSRESAVFRITGVFSVIGGWFITAGAAFILCFLVTMVNHFGGYPAMAGMIILAIFLLVRSHIRFDKKKKSETKDTVFIDMMASHDKEEIWQLLAKHIRQKQLALLDFAENNYMQMTDGFINEDLKRLRRSINDQNAERQMLKVNRRKETLGIRRIEEAKSVVKNTWFHLGCNSCEQIVFCLKRIAEPCKEHVDNNFNPLPKVCVSEFLAAREKLILYIKEAKLIVSNETDEILDPMTYRGKDIKKELKQLRKTQLSRIQQGASSLKISLVYLNLLQESQQLVNILDDLIHATEKLFDPVARIGTDEEFFN”, the protein production entry is on record as “failed”.

With “MSINLSKGDKIDLKKSNPGLSNILVGLGWDPVQQSGGGFFKSLFGGGQADIDCDASVFMLNQEGKLSGIKDLIYFGNLKSACKSVLHTGDNLTGEGTGDDEQILVNLDKVPSNIHKLLFVVNIYNCVDRKQHFGMIENAYIRVEDQGNKKEIAKYNLSDNYSEKTTLIVGAIYRKDGSWQFKAIGEGTKDAGLKEVMQNLDRIECAYGI”, the protein production entry is reported as “failed”.

Consider “MIDGQIRLGHSMPWGMVGGGQGSQIGYIHRSAALRDGSFQLVAGAFDLDPERGRQFGQRLGVSAQRCYPDYRAMFEAEARRPDGIRAVSIATPNNTHFDICRAALHAGLHVVCEKPLCFTTAEAEALQRLAGEQRKIVGVTYGYAGHQLIEHAREMIVRGDLGEIRIVQMQFSHGFHSEGVEAANPAARWRMDPTFAGPSYVLGDIGTHPLYLSEVMLPGLKIARLLCSRQSFVKTRAPLEDNAFTIMEYQGGAIGYAWSCAVNAGSMHGQKIRVIGSKASLEWWDEHPNQLRYEVQGQPAQVLDRGMGYLHPAALHDDRIGAGHPEGLFEAWSNLYYRFALAMDATDRDDAAALRGIRYPDIHAGVEGVRWVENCVRSADAGGVWVDYR”, for which the protein production entry is “failed”.

Turning to “MSQFSTVWVLSDVLSPLPELMGGASSLGQSINVFTFNDEQSIAAFKLGATAVFQLEGKPDDRIMEDYAQSIVETIKSHSDAGLVLLPNTRRGKLFAARLGHRLAAVVSNDAQSLSTQNDTLVAKHMVYGGLAFSDETLTTPYCVVTASTGAFDVASETQATGTAQKVAWIAPSQSIICQSIQ”, the protein production entry is listed as “failed”.

As to “MSSEYKKGIFLALGAYILWGILPIYWRLIDEIGAFEILAFRIIFSVIFMIFVLIIGKNQRNAFFRDVNQLVSHPVQLIAIIVAGYVITVNWGTFIWAVSNGHVLQSSLGYYINPLVSIVLALIFLKERFNKFEWLAIIFALVGVLYMTIKIGEFPFISLLLAFSFGIYGLLKKIVHIDAISSITIECIVTAPAGLIYVIYLWQQQHITFGLNISSFWLLFSGAITAIPLILFSAGAKRIPLSLTGFIQYVGPTIMFILGIFVFKEPFNTDQLITFIFIWIGIVLYSISQYVQIKKNPVVK”, the protein production entry was “failed”.

On to “IAQIPVSVYWMNKNHVYMGCSNNMVKLLNLNSRYDIVGKTYEDLYHEKSTSYYKKADKIVMDKGISLSLEEPFYCPDGTTKEIYLSNKVPLRDLEGKIIGMLGVSVDIT”, for which the protein production entry is “failed”.

For “MMSTPALRPYLPEDAAVTAAIFVASIEQLTADDYSEEQQEAWASAADDEAKFAARLSGQLTLIATLQGVPVGFASLKGPDHIDMLYVHPDYVGRDVGTTLIDALEKLAGARGALILTVDASDNAAEFFAKRGYVAKQRNTVSINGEWLANTTMTKSLADSAAPGASS”, the protein production entry was “not failed”.

With “GRDLLLAVDVSGSMDYRDMRWQDDEISRLELIKKLFGDFIEDRRGDRVGLILFGSQAYLQAPLTFDRHTVRVWLDEAQIGIAGKNTAIGDAIGLAVKRLRQRPAESRVLVLITDGANTGGQIAPQIAAQLAAEQQVKIYTIGIGADPQQGGVPGLFGFNPGLDLDEPTLRGIAESTGGEYFRARSSAELESISATLDRLEPVA”, the protein production result is listed as “failed”.

“MPINFHDANNKYTYAQRNAHISWREMIKSITSIQNKRIVDIGCGGGIYTKELALMGAKSVVGIDFSKEILQAAKENCSGFSNISFIHGDAHSTPYPNDTFDIVISRAVIHHLQDIPTFLREASRILKKNGVLIVQDRTIEDCTIPGSPEHIRGYFFSTFPKLIETESKRRPKTTTIQQELQKYFLHVFPTQTQWEVRKIHDSVEALLQDLSPRTGRSILYELTDYELSQLLQQVQTALQNVSPIIEKDRWTIWSAMKL”: the protein production result was “failed”.

Take “MVLETVSKTEPPPLLGPRISFSSDLSDGGDFICITPVMCKEDVVKGSVKVSDFEFLSSENVSPQRMLTADELFSEGKLLPFWQVKHSEKLKNITLKTNEEEEAEKRKVEVKKKDQEINNRDNRVTWFIDEDPSPRPPKCTVLWKELLRLKKQRNPSSSPVTARTVSSLSPSSSTSSSSSLEDAAKREEKEKEGKRGKKGLERTRSASMRIRPMIHVPICTPSKSSLPLPPLFPLSLKKNRVERRA”: the protein production entry is reported as “failed”.

With “MFKALLPQSKQKLQHAKYFAKKMHQASASDQLQSHWHLQQWWILIAGFFLFGSVLVFAFTRPISSTKIEAEYLKEVDPQIYTLLNGEMLTPPPEVDESLISAAIVEANQLEQQYASQHSETNAPSASENLMHHNLIDTQFVDRKWDKMNPRYKQRLLMVFKIMKERYGYELVLLEGYRSPERQNLLSGNPNTTRARGYQSYHQFGLAADVAFKRNGKVVISERDPWAMRGYQLYGEVAESVGLTWGGRWKSIQDYGHTEYRMPGLRKTKEMAEQLIAEGQLTANAAS”, the protein production result is listed as “failed”.

For the sequence “MFAEYLDGRMLMQINAGAFLIALLCLRGDRQRTLDRWLFGAAAGVLLLVYYVWRFTDTLPEWRMDFPSLWAHAFFGFESLTIAYTLISIGIMTRTSDHSAEADAGETALRRGREAPPVDIFIATYNEGLDVLEKTIVAALDIDYPNFRVWVLDDTRRDWLREFCDQVGARYVTRPDNAHAKAGNLNNGLRHSAELDGGAPFIMVLDADFAPNRNILLRIVGLFDDPQVGVVQTPQFYYNADPIQYNLRSTECWVDEQRAFFDVMQPSKDAWGTAFCIGTSFVVRREALDRIGGFPIGTVTEDIHLTYKLMPHGYITRWLNERLSVGLSAEGLPEYISQRSRWGLGTIQVALTADGPLRGPGYTLRERLHYVHGLLHWLSRPFTLMLLAGPLLYWYFNVPTLYGEPLQFLAFGVPALLLYWAYSIWITGARAMPIFTEVTQIVAAMAVSATLVSAIFKPFGRPFKVTNKGLDRSKLVVHGKFAAFYGALFVLAAMGLGRAVAADGTASGVVFNIGWTVISMVLYLASLLVCFELPRPRKEERFPHRERARLCIYGSDGLPREFDGVTQDMSCNGIGLISDAAGRVEAGATGAVWLSELGWVTCRVARTQGHLLGIELFPDMAGRHRLIRMLFGEPAHNIAHRGRPRVAIVQLLRRAFTG”, the protein production entry is given as “failed”.

As for “MAQFYSAKRRTTTRQIITVSVNDLDSFGQGVARHNGKTLFIPGLLPQENAEVTVTEDKKQYARAKVVRRLSDSPERETPRCPHFGVCGGCQQQHASVDLQQRSKSAALARLMKHEVSEVIADVPWGYRRRARLSLNYLPKTQQLQMGFRKAGSSDIVDVKQCPILVPQLEALLPKVRACLGSLQAMRHLGHVELVQATSGTLMILRHTAPLSSADREKLECFSHSEGLDLYLAPDSEILETVSGEMPWYDSNGLRLTFSPRDFIQVNAGVNQKMVARALEWLDVEPEDRVLDLFCGMGNFTLPLATQAASVVGVEGVPALVEKGQQNARLNGLQNVTFYHENLEEDVTKQPWAKNGFDKVLLDPARAGAAGVMQQIIKLEPIRIVYVSCNPATLARDSEALLKAGYTIARLAMLDMFPHTGHLESMVLFSRVK”, the protein production result is recorded as “not failed”.

With “MSEPVIKSLLDTDMYKITMHAAVFTNFPDVTVTYKYTNRSSQLTFNKEAINWLKEQFSYLGNLRFTEEEIEYLKQEIPYLPSAYIKYISSSNYKLHPEEQISFTSEEIEGKPTHYKLKILVSGSWKDTILYEIPLLSLISEAYFKFVDIDWDYENQLEQAEKKAETLFDNGIRFSEFGTRRRRSLKAQDLIMQGIMKAVNGNPDRNKSLLLGTSNILFAKKYGVKPIGTVAHEWVMGVASISEDYLHANKNAMDCWINTFGAKNAGLALTDTFGTDDFLKSFRPPYSDAYVGVRQDSGDPVEYTKKISHHYHDVLKLPKFSKIICYSDSLNVEKAITYSHAAKENGMLATFGIGTNFTNDFRKKSEPQVKSEPLNIVIKLLEVNGNHAIKISDNLGKNMGDPATVKRVKEELGYTERSWSGDNEAHRWTZ”, the protein production result is listed as “not failed”.
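Note: failed if final PepcDB status was selected cloned or expressed and not failed if soluble or beyond.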
